The data set has as its target T1, Mmi1 YTH domain (longer construct) (Schizosaccharomyces pombe, UniProt O74958 326-488).
T1 sequence: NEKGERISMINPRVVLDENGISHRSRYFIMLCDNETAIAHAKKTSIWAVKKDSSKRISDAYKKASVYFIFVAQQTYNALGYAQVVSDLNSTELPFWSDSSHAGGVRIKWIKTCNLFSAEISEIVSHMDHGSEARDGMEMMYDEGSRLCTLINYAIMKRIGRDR
Description: ITC. Background: ITC needs no label: the signal is the heat of the interaction.

For the molecule AUUAAACA (ssRNA) [DSR 8-mer], the binding result was “binds”.

For the origin of these results see publication doi:10.1101/145276.
